The results in this text go back to the DeepSol protein solubility set.

The nature of the data set: soluble on expression in E. coli; label from the status in PepcDB or PDB records.
Consider “MELLCPAGNLPALKAAIENGADAVYIGLKDDTNARHFAGLNFTEKKLQEAVSFVHQHRRKLHIAINTFAHPDGYARWQRAVDMAAQLGADALILADLAMLEYAAERYPHIERHVSVQASATNEEAINFYHRHFDVARVVLPRVLSIHQVKQLARVTPVPLEVFAFGSLCIMSEGRCYLSSYLTGESPNTIGACSPARFVRWQQTPQGLESRLNEVLIDRYQDGENAGYPTLCKGRYLVDGERYHALEEPTSLNTLELLPELMAANIASVKIEGRQRSPAYVSQVAKVWRQAIDRCKADPQNFVPQSAWMETLGSMSEGTQTTLGAYHRKWQ”, for which the “soluble on expression in E. coli” value is “soluble”.
With “MELNWALFYGLCPSIKMAHVFDKDEIMGLFESFRKARAKTKAEIKAAKVKARQEVKDATKLEIKRNKLLAQQEKALLKEERKGLKAKRKHEEKLAKTTLEQLKAGKFNKDNVLRYAGAARTLAPIVLPLIYRGITLAKEQANTKRALRLGIDPSDLARFAGHGAELKARIEGIRGSVKVSSLPKGFVADVEQRLDDLTFAVDNAEYMTPELRQRSHRSIANDLDQLARQIQDKIGE”, the “soluble on expression in E. coli” value was “not soluble”.
The entry for “MELRIGFGFDSHEFVEGKLLILGGVEIEKDYGLKGHSDGDALLHAITDAILGALGERDIGEIFKDTDPRWKNAPSRIFLEKALEVMSEKGFNISNIDCVIVADRPKIAPHKERIKESLSKLLGIPKERISLKGKRREGFCEGNGLVCMCTVLLVKMLEHHHHHH” is “soluble”; for “MELTFNQAAKGVNKEFTVNIMDTCERCNGKGNEPGTKVQHCHYCGGSGMETINTGPFVMRSTCRRCGGRGSIIISPCVVCRGAGQAKQKKR” it is “soluble”; for “MENGCGKMESFSPQALEMIRSLGTTHIWYIGMLEQATQTNYSDAGILPCHPEIVKGKAGSPYAVRDYYDVSPELATNIPNRMAEFHDLIERTHRAGMGVIMDFVPNHVAREYRSDVKPSGTKDLGEEDDPLVAFSPNNNFYYLPGKCLELDFGERSRTMMPYHEEPARATGNDRFSSHIDKEDWYETVKLNYGIDYLNGGSKHFDPLPDTWIRMRDILLFWASKGIDGFRCDMAEMVPVKFWEWAIPQIRERHSVLFIAEIYRPELYESYLQAGFDYLYDKVGMYDCLRTVICGYGSASDISRVVRQTERFADNMLYFLENHDEQRIASDFFAEDARKALPAVTIAATIGRNPFMLYFAQELGERGMDAEGFSGKDGRTTIFDYWSLDKMQRRINDGRYDTTMLSEEERLLLQSYTRLLHDVCALPSVIQGSFYDLGYANQNNPYFRPNREFAFLRHTTDEILLVAANFAPHEAEIRVIIPEHAFQTMQIKDNAAFLLTDMLSGENSIGCLTQYAPYPLHLPAYGYALHRFRPL” it is “not soluble”.
Regarding “MENGHLAKVDLTKKIESKSKYNKKLEKYQRRLLALQQILKEEKIAVMLVMEGWDAAGKGGAIKRVTEHLDPRGFQVDPIGAPAPHEKRYHYLQRFWRKIPQYGQITIFDRSWYGRVLVERVEGFATKEEWMRAYDEINDFEKLLTDDHYIIGKFFYHISKEEQLKRFKDREKNPLKRWKITDEDWRNREKWDEYVEAMEDMFEKTSKPNAKWHIIESNDKLYARVKTLKIIISFIEDYFLEHGIELPSYYYEMKEDIEVLQDVGVKE”, the “soluble on expression in E. coli” value is given as “not soluble”.
In the case of “MENKKNDNQQPTVASAHHPFYLGEMKKGMFACWTVTTQCCDDTKVTILDDTGKVYATYTKAFTQSHNLTLLGQGNAIIEGNELRVYVDSSMSSQLIASTNTHLINDLNARKVGAVTDICIEDQTDNDFNDVYINVVAWNKKG”, the “soluble on expression in E. coli” value was “not soluble”.
Consider “MENNTNQENSDALENVSFACIRPEILYFGTPVVLISTIDREGKVNLAPISSAWALGYSVVMGIGTESKTMENLRETGECTLNFPEGALWESVERLAPLTGKYPVPQDKADKFRFESNKFGVAGLTPCDSEVVKPPRVLECRLQMEACVKSVRRISEPDVQAGIVEVKVVRVHARNDLIIDGKYIDPKQWKPLIYSFRHYFTLGCDLGKTFRSKI”, for which the “soluble on expression in E. coli” value is listed as “not soluble”.
Regarding “MENQPKLNSSKEVIAFLAERFPQCFSAEGEARPLKIGIFQDLVERVGGEMNLSKTQLRAALRLYTSSWRYLYGVKAGAIRVDLDGNPCGELEEQHIAHARQQLEEAKARVQAQRAAQQAKKREAAAAAGQQDEGVRRERKPRPQQPRRKEGAEQRKPRPVAAKAPREERLTPVSDVSVLTVGQALKVKAGNNAMDATVLEITKDGVRVQLTSGMSMIVRAEHLVF”, the “soluble on expression in E. coli” value is listed as “not soluble”.
As to “MENQTTDLENMVGASRAGLTRRGFISAGALCGAAMFLGGNILSRTVLANSVSAASGALLGFESIPTATADSISLPKGYTSSVLISWGQPLQANGPAFDPSGKGTAQAQEVQFGDNNDGMCLFPMPGHKDRALMAINNEYTNYRYLFDHGKEPQSAEEVQKALAAEGVSVIEVQQKQGKWQFVQDSRYNRRVHGNTPIKLSGPAAGHDWLKTDADKGGTHALGTFQNCSSGQTPWGTYLTCEENFTDCFGSSNPEQKFDAGMKRYGVVAASKEINWHPHDPRFDVAKNPNEVNRHGWVVEIDPFDPKSTPVKRTALGRFKHENAAFTQTKGGRAVVYMGDDERGEFIYKFISRDKIDHQNPKANRDLLDHGTLYVAQFDAGDSNPDHPKGKGQWIELTHGKNGLDAAASFNNQAEVLIHARLAASVVKATRMDRPEWIVVSPKDGQVYCTLTNNIKRGDEGQPVGGPNPRAKNQYGQILRWSEEGSNASAMAFDWDLFVVAGNPAVHAGTPQAGSSNINAQNMFNSPDGLSFDEAGRLWIQTDGDSSNKGDFAGMGNNQMLCADPASGEIRRFLVGPVGCEITGISFAPDYKTMFIGIQHPGENGGSTFPEHLPNGKPRSSVMVITREDGGVIGALEHHHHHH”, the “soluble on expression in E. coli” value is “soluble”.
As for “MENVEKRLIQLFTTYLNKAKHHMQGGSDMPNELVIGLHCRGEFESHRSWMQPRVQRGLEERMLFSSHKRAQIYKEAATSSLVAASSAPGEVREG”, the “soluble on expression in E. coli” value is “soluble”.
For “MENVSDDRFAEMVWEAVSGGATLKDVHGIPQDMMEGLYAHAYDFYHKGRLDEAETFFRFLCIYDFYNPDYIMGLAAVCQLKKQFQKAVDLYAVAFALSKNDYRPVFFTGQCQLFMRKAAKARQCFELVCEQSGLEHHHHHH”, the “soluble on expression in E. coli” value is recorded as “not soluble”.
With “MEPIDIARLEEAVVSFYRSNSQNQAITHEWLTDAEASPQAWQFSWQLMQLGKSQEVQFFGAITLHSKLMKHWHEVPPENREELKQKILESIVRFAGGPKIVLNRLCISLGAYIVHMLGEWPGAIEEVINTFQNQRMPNVSADVQLWIMLEVLTAIPEEAQVIHTSVKRVVLRAEIAKRVQLVIHTVERYLKLQMNRVWDAEAYSNMNRAVKCVGTWIKNIGYTIEGCVTITAVLLEVVHKCYWPCIHAGDGCMTADENELAESCLKTMVNIIIQPDCHNYPKTAFVLIKMFLDSLSEITKTEWKRENDNEDIIVHIYMLFVSSVERHSTLLLSGITSADPELSILVHRIVQEILHCTDKPGIYPVEESCSTMALAFWYMLQDEVFAMSNDEQKHKCWEYIKPLYAHLTRILVRKSEQPDEKSLAKWSSDDLECFRCYRQDISDTFMYCYDVLNDYILEILAAMLDEAIADLQRHPTHWTKLEACIYSFQSVAEHFGGEEKRQIPRLMRVLAEIPYEKLNVKLLGTALETMGSYCNWLMENPAYIPPAINLLVRGLNSSMSAQATLGLKELCRDCQLQLKPYADPLLNACHASLNTGRMKNSDSVRLMFSIGKLMSLLRPEEIPKYLDIIVSPCFEELQAICQADSKTPAARIRTIFRLNMISTLFSSLNTDVDEQATDQPIVQPVLLVMQRTMPIFKRIAEMWVEEIDVLEAACSAMKHAITNLRSSFQPMLQDLCLFIVASFQTRCCAPTLEISKTAIVMFFKDEGCKPLMQQLLREFIQHSFKLFESTPEQNFSNISDTMETFFGCLTQIIKKIPQVLEDKTLAYDRLVFYAQRGMTLPESGAIRNSIQFLTHFVMQSRNHAHVTEVVLATGEQTLYTAMMCVGYLTPRSQVDKFADILLAMNRKYAAEMAVWMKSLMSTPNFPTQLITDADKTRYTALIIKEKVNKRLLQQHLSEMAMKTRGLTEKFQ”, the “soluble on expression in E. coli” value is “soluble”.
Regarding “MEPYVGIVIFELAKSNTSPEENNSFFREDFYIVYADSEEAAHKLVEKRAHEEETPKNAAQDSGPTVTLRHIIDVAPALYGYVDKDCNLYSRHFASLEDYARFEMMLGGKDPLSH”, the “soluble on expression in E. coli” value is on record as “soluble”.
With “MEQFRNIGIIGRLGSVQVLDTVRRLKRFLLDRHLHVILEETIAEVLPGHGLQTSSRKMLGEVCDMVIVVGGDGSLLGAARALARHNVPVLGINRGSLGFLTDIRPDELEVKCAEVLDGHYLVENRFLLQAEVRRHGEAIGQGDALNDVVLHPGKSTRMIEFEIYIDGQFVCSQKADGLIVATPTGSTAYALSAGGPIMHPKLDAIVIVPMYPHTLSGRPIVVDGNSELKIVVSKDMTIYPQVSCDGQNHFTCAPGDTITVSKKPQKLRLIHPLDHNYYEVCRTKLGWGSRLGGGGDLEHHHHHH”, the “soluble on expression in E. coli” value was “soluble”.
As to “MEQKNVRNFCIIAHVDHGKSTLADRLLEYTGAISEREKREQLLDTLDVERERGITVKMQAVRMFYKAKDGNTYKLHLIDTPGHVDFSYEVSRALAACEGALLLIDASQGIEAQTVANFWKAVEQDLVIIPVINKIDLPSADVDRVKKQIEEVLGLDPEEAILASAKEGIGIEEILEAIVNRIPPPKGDPQKPLKALIFDSYYDPYRGAVAFVRIFDGEVKPGDKIMLMSTGKEYEVTEVGAQTPKMTKFDKLSAGDVGYIAASIKDVRDIRIGDTITHAKNPTKEPVPGFQPAKPMVYAGIYPAEDTTYEELRDALEKYAINDAAIVYEPESSPALGMGFRVGFLGLLHMEIVQERLEREYGVKIITTAPNVIYRVKKKFTDEVIEVRNPMDFPDNAGLIEYVEEPFVLVTIITPKEYVGPIIQLCQEKRGIQKNMTYLDPNTVYLEYEMPLSEIIVDFHDKIKSISRGFASYDYEFIGYRPSDLIKLTVLINKKPVDALSFIVHADRAQKFARRVAEKLRETIPRQLFEVHIQVAKGGKVIASERIKPLRANVTAKCYGGDVTRKKKLLENQKEGKKRMKQFGKVQLPQEAFLSVLKVE”, the “soluble on expression in E. coli” value was “soluble”.
Consider “MEQPEKNIKLAYDGEIHLAVGASKTEKKWKNRQMSWSDFTQRLKTPTVTQETVEDYKKMPKSKQGEVKDVGAFIGGWLKEGRRKRGNTQQRSLVTLDADSTTLDFWDDVQLLFDHAAAVYTTHSHLVKGPRYRLIIPLSRPVTAEEYEPLARKLAEFFGMDNFDDTTYQAERLMYWPSHSIDGEYFTDNIDLPWVDPDEILSQYEDWRDASFWPESSRGHSIRERQAKKAGDPLEKKGIVGAFCRTYDIISAIETFLPDIYGSTGREDRWTFLEGSTSGGLVIYDDKFAYSHHGTDPVGDQLVNAFDLVRIHLFGDLDEDVKPTTRIDRYPSFKAMREFAMEDKQVKTLIQSEKLSQALEDFDGELDELEEDDKDWFTKLDLEIDEYGQIMASAKNLEVIMLNDPNLKKKIFMNSFSNRIEVKDNLPWRKLDRDKMWKDSDDAGLRVYIEKIYGIVNRGKIDDALVQEIERNSYDPVKEYLESLHWDGVPRVETLLIDYLGAEDTPFIRVVTKKFLTAAVGRIFVPGIKFDYMLVTSGPQGIGKTLLPAKLAGDWFSNSLEGVTGKDSYEALQGVWIMEMGELSATKKADIEATKHFISKQEDIFRVAYGRHKSYFKRRCVFWGTTNDNEFLRDKTGNRRFWPVDVGIQPIKNKVWEMTDETRNQIWAEAVELWQAGEPLYLTDEQEKLALEAQEMHTETSSMEGEILEYLEIPITEDWYKRSKQERREYIQGWGTDIQEEGEIVRNKVCIAEVWNELYNGDSKNIHPAKAAEIRQVLSHLSGWEKNSKGNKGRLRFGPGYGVQVAYLRVTP”, for which the “soluble on expression in E. coli” value is reported as “not soluble”.
Regarding “MEQQRDFDSALAWHRKAKCAGKAGSADVLPGHDKDANAARVVELCAMCADCPVFEQCGREAIAEPFLTLGVVRAGIPDTTQSKSKQKKLLQQVIDEGVPPPVALIMALKDRKGYEGALVGLAGLYEAYRGVYV”, the “soluble on expression in E. coli” value was “not soluble”.
